Test system: Escherichia coli TOP10
Experiment: shrunken log2 fold change of peptide-encoding DNA abundance (4.5 h post-induction vs induction); higher = less antimicrobial activity (less host growth inhibition)
Details: time post-induction: 4.5 h; library: site-saturation at positions 5, 18, 19, 20
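Note: peptides expressed intracellularly from a pBAD plasmid library in pooled LB shake-flask culture, induced with 0.3% L-arabinose, DNA abundance read by NGS, three biological replicates, DESeq2 with apeglm shrinkage.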

Row | Sequence | shrunken log2 fold change
1 | RRIRGRPPRLPRPRPRPCDYPRP | 0.132
2 | RRIRMRPPRLPRPRPRPNIGPRP | -0.0302
3 | RRIRQRPPRLPRPRPRPPGFPRP | 0.0259
4 | RRIRERPPRLPRPRPRPYVTPRP | -0.447
5 | RRIRRRPPRLPRPRPRPQWHPRP | 0.181
6 | RRIRVRPPRLPRPRPRPAAFPRP | 0.227
7 | RRIRVRPPRLPRPRPRPNTPPRP | -0.0576
8 | RRIRSRPPRLPRPRPRPYYTPRP | -0.576
9 | RRIRCRPPRLPRPRPRPDNCPRP | 0.0206
10 | RRIRERPPRLPRPRPRPCHRPRP | -0.02
11 | RRIRCRPPRLPRPRPRPSNTPRP | -0.417
12 | RRIRMRPPRLPRPRPRPYYSPRP | -0.0674
13 | RRIRIRPPRLPRPRPRPDRCPRP | -0.163
14 | RRIRWRPPRLPRPRPRPADWPRP | 0.345
15 | RRIRFRPPRLPRPRPRPFMNPRP | -0.03
16 | RRIRGRPPRLPRPRPRPEHMPRP | 0.396
17 | RRIRFRPPRLPRPRPRPVRKPRP | -0.355
18 | RRIRCRPPRLPRPRPRPKYGPRP | 0.0136
19 | RRIRGRPPRLPRPRPRPGRRPRP | 0.849
20 | RRIRCRPPRLPRPRPRPYLQPRP | -0.144

Row | Sequence | shrunken log2 fold change
21 | RRIRPRPPRLPRPRPRPVYIPRP | -0.684
22 | RRIRWRPPRLPRPRPRPIRMPRP | 0.098
23 | RRIRPRPPRLPRPRPRPPWRPRP | 0.558
24 | RRIRSRPPRLPRPRPRPTHSPRP | 0.186
25 | RRIRWRPPRLPRPRPRPTGHPRP | 0.317
26 | RRIRIRPPRLPRPRPRPPGVPRP | 0.408
27 | RRIRGRPPRLPRPRPRPTQKPRP | 1.22
28 | RRIRRRPPRLPRPRPRPNHSPRP | -0.321
29 | RRIRMRPPRLPRPRPRPTIFPRP | -0.0388
30 | RRIRLRPPRLPRPRPRPHPCPRP | -0.0967
31 | RRIRQRPPRLPRPRPRPTSCPRP | -0.0676
32 | RRIRTRPPRLPRPRPRPRFDPRP | 0.332
33 | RRIRNRPPRLPRPRPRPCPDPRP | -0.0721
34 | RRIRRRPPRLPRPRPRPSWHPRP | -0.0466
35 | RRIRWRPPRLPRPRPRPSQAPRP | -0.126
36 | RRIRQRPPRLPRPRPRPPMIPRP | 0.0721
37 | RRIRTRPPRLPRPRPRPPPIPRP | 0.451
38 | RRIRARPPRLPRPRPRPYCYPRP | -0.227
39 | RRIRGRPPRLPRPRPRPEHHPRP | 0.262
40 | RRIRIRPPRLPRPRPRPFWRPRP | -0.00848

Row | Sequence | shrunken log2 fold change
41 | RRIRMRPPRLPRPRPRPTTAPRP | 1.19
42 | RRIRARPPRLPRPRPRPDLNPRP | 0.473
43 | RRIRMRPPRLPRPRPRPSFHPRP | -0.432
44 | RRIRKRPPRLPRPRPRPIWPPRP | 0.345
45 | RRIRIRPPRLPRPRPRPTFVPRP | -0.582
46 | RRIRVRPPRLPRPRPRPNKLPRP | -0.325
47 | RRIRERPPRLPRPRPRPGKPPRP | 0.231
48 | RRIRIRPPRLPRPRPRPPEGPRP | 0.115
49 | RRIRERPPRLPRPRPRPYFSPRP | -0.247
50 | RRIRGRPPRLPRPRPRPRLPPRP | 0.851
51 | RRIRARPPRLPRPRPRPEPLPRP | 0.284
52 | RRIRPRPPRLPRPRPRPGQAPRP | -0.0745
53 | RRIRKRPPRLPRPRPRPEHWPRP | 0.428
54 | RRIRYRPPRLPRPRPRPYCHPRP | -0.435
55 | RRIRRRPPRLPRPRPRPQQLPRP | -0.0976
56 | RRIRIRPPRLPRPRPRPRRPPRP | 0.233
57 | RRIRKRPPRLPRPRPRPTSGPRP | -0.064
58 | RRIRGRPPRLPRPRPRPYTDPRP | -0.417
59 | RRIRFRPPRLPRPRPRPFTIPRP | -0.313
60 | RRIRMRPPRLPRPRPRPLHPPRP | 0.439

From the supplement of paper PMC9112550, “Optimization of the antimicrobial peptide Bac7 by deep mutational scanning” (BMC Biology, 2022)
